Assay results taken from the supplement of paper PMC12855868.

B1: library; numbered along this chain (parent)
chain: MAAAGGARLLRAASAVLGGPAGRWLHHAGSRAGSSGLLRNRGPGGSAEASRSLSVSARARSSSEDKITVHFINRDGETLTTKGKVGDSLLDVVVENNLDIDGFGACEGTLACSTCHLIFEDHIYEKLDAITDEENDMLDLAYGLTDRSRLGCQICLTKSMDNMTVRVPETVADARQSIDVGKTS

Variants of: B1
Assay: scaled log2 fold change in cell abundance, elesclomol vs control (0 = silent mean, 1 = nonsense mean) (scaled log2 ratio); higher = higher viability under elesclomol (loss of FDX1 cuproptosis function)
Conditions: glucose 10 mM
[1] = with ABC1 FDX1 KO, elesclomol 5 nM, 14 days
[2] = with HEK293T FDX1 KO, elesclomol 40 nM, 11 days
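Also: variant abundance is its share of total variant reads in each endpoint sample, from next-generation sequencing of the integrated ORF PCR-amplified out of genomic DNA.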

| Variant | scaled log2 fold change [1] | scaled log2 fold change [2] |
| --- | --- | --- |
| MAAAGGARLLRAASAVLGGPAGRWLHHAGSRAGSSGLLRNRGPGGSAEASRSLSVSARARSSSEDKITVHFINRDGETLTTKGKVGDSLLDVVVENNLDIDGFGACEGTLACSTCHLIFEDHIYEDLDAITDEENDMLDLAYGLTDRSRLGCQICLTKSMDNMTVRVPETVADARQSIDVGKTS | 0.116 | 0.255 |
| MAAAGGARLLRAASAVLGGPAGRWLHHAGSRAGSSGLLRNRGPGGSAEASRSLSVSARARSSSEDKITVHFINRDGETLTTKGKVGDSLLDVVVENNLDIDGFGACEGTLACSTCHLIFEDHIYECLDAITDEENDMLDLAYGLTDRSRLGCQICLTKSMDNMTVRVPETVADARQSIDVGKTS | -0.0261 | -0.165 |
| MAAAGGARLLRAASAVLGGPAGRWLHHAGSRAGSSGLLRNRGPGGSAEASRSLSVSARARSSSEDKITVHFINRDGETLTTKGKVGDSLLDVVVENNLDIDGFGACEGTLACSTCHLIFEDHIYEALDAITDEENDMLDLAYGLTDRSRLGCQICLTKSMDNMTVRVPETVADARQSIDVGKTS | -0.285 | 0.163 |
| MAAAGGARLLRAASAVLGGPAGRWLHHAGSRAGSSGLLRNRGPGGSAEASRSLSVSARARSSSEDKITVHFINRDGETLTTKGKVGDSLLDVVVENNLDIDGFGACEGTLACSTCHLIFEDHIYEELDAITDEENDMLDLAYGLTDRSRLGCQICLTKSMDNMTVRVPETVADARQSIDVGKTS | -0.285 | 0.945 |
| MAAAGGARLLRAASAVLGGPAGRWLHHAGSRAGSSGLLRNRGPGGSAEASRSLSVSARARSSSEDKITVHFINRDGETLTTKGKVGDSLLDVVVENNLDIDGFGACEGTLACSTCHLIFEDHIYYKLDAITDEENDMLDLAYGLTDRSRLGCQICLTKSMDNMTVRVPETVADARQSIDVGKTS | -0.278 | -0.0436 |
| MAAAGGARLLRAASAVLGGPAGRWLHHAGSRAGSSGLLRNRGPGGSAEASRSLSVSARARSSSEDKITVHFINRDGETLTTKGKVGDSLLDVVVENNLDIDGFGACEGTLACSTCHLIFEDHIYKKLDAITDEENDMLDLAYGLTDRSRLGCQICLTKSMDNMTVRVPETVADARQSIDVGKTS | 0.48 | 0.921 |
| MAAAGGARLLRAASAVLGGPAGRWLHHAGSRAGSSGLLRNRGPGGSAEASRSLSVSARARSSSEDKITVHFINRDGETLTTKGKVGDSLLDVVVENNLDIDGFGACEGTLACSTCHLIFEDHIYWKLDAITDEENDMLDLAYGLTDRSRLGCQICLTKSMDNMTVRVPETVADARQSIDVGKTS | -0.76 | -0.135 |
| MAAAGGARLLRAASAVLGGPAGRWLHHAGSRAGSSGLLRNRGPGGSAEASRSLSVSARARSSSEDKITVHFINRDGETLTTKGKVGDSLLDVVVENNLDIDGFGACEGTLACSTCHLIFEDHIYTKLDAITDEENDMLDLAYGLTDRSRLGCQICLTKSMDNMTVRVPETVADARQSIDVGKTS | -0.0928 | 0.0298 |
| MAAAGGARLLRAASAVLGGPAGRWLHHAGSRAGSSGLLRNRGPGGSAEASRSLSVSARARSSSEDKITVHFINRDGETLTTKGKVGDSLLDVVVENNLDIDGFGACEGTLACSTCHLIFEDHIYVKLDAITDEENDMLDLAYGLTDRSRLGCQICLTKSMDNMTVRVPETVADARQSIDVGKTS | 0.114 | -0.317 |
| MAAAGGARLLRAASAVLGGPAGRWLHHAGSRAGSSGLLRNRGPGGSAEASRSLSVSARARSSSEDKITVHFINRDGETLTTKGKVGDSLLDVVVENNLDIDGFGACEGTLACSTCHLIFEDHIYHKLDAITDEENDMLDLAYGLTDRSRLGCQICLTKSMDNMTVRVPETVADARQSIDVGKTS | -0.583 | -0.234 |
| MAAAGGARLLRAASAVLGGPAGRWLHHAGSRAGSSGLLRNRGPGGSAEASRSLSVSARARSSSEDKITVHFINRDGETLTTKGKVGDSLLDVVVENNLDIDGFGACEGTLACSTCHLIFEDHIYPKLDAITDEENDMLDLAYGLTDRSRLGCQICLTKSMDNMTVRVPETVADARQSIDVGKTS | -0.165 | 0.0466 |
| MAAAGGARLLRAASAVLGGPAGRWLHHAGSRAGSSGLLRNRGPGGSAEASRSLSVSARARSSSEDKITVHFINRDGETLTTKGKVGDSLLDVVVENNLDIDGFGACEGTLACSTCHLIFEDHIYRKLDAITDEENDMLDLAYGLTDRSRLGCQICLTKSMDNMTVRVPETVADARQSIDVGKTS | 0.109 | -0.189 |
| MAAAGGARLLRAASAVLGGPAGRWLHHAGSRAGSSGLLRNRGPGGSAEASRSLSVSARARSSSEDKITVHFINRDGETLTTKGKVGDSLLDVVVENNLDIDGFGACEGTLACSTCHLIFEDHIYQKLDAITDEENDMLDLAYGLTDRSRLGCQICLTKSMDNMTVRVPETVADARQSIDVGKTS | -0.176 | -0.00485 |
| MAAAGGARLLRAASAVLGGPAGRWLHHAGSRAGSSGLLRNRGPGGSAEASRSLSVSARARSSSEDKITVHFINRDGETLTTKGKVGDSLLDVVVENNLDIDGFGACEGTLACSTCHLIFEDHIYMKLDAITDEENDMLDLAYGLTDRSRLGCQICLTKSMDNMTVRVPETVADARQSIDVGKTS | 0.0258 | – |
| MAAAGGARLLRAASAVLGGPAGRWLHHAGSRAGSSGLLRNRGPGGSAEASRSLSVSARARSSSEDKITVHFINRDGETLTTKGKVGDSLLDVVVENNLDIDGFGACEGTLACSTCHLIFEDHIYSKLDAITDEENDMLDLAYGLTDRSRLGCQICLTKSMDNMTVRVPETVADARQSIDVGKTS | 0.239 | – |
| MAAAGGARLLRAASAVLGGPAGRWLHHAGSRAGSSGLLRNRGPGGSAEASRSLSVSARARSSSEDKITVHFINRDGETLTTKGKVGDSLLDVVVENNLDIDGFGACEGTLACSTCHLIFEDHIYLKLDAITDEENDMLDLAYGLTDRSRLGCQICLTKSMDNMTVRVPETVADARQSIDVGKTS | 0.17 | 0.357 |
| MAAAGGARLLRAASAVLGGPAGRWLHHAGSRAGSSGLLRNRGPGGSAEASRSLSVSARARSSSEDKITVHFINRDGETLTTKGKVGDSLLDVVVENNLDIDGFGACEGTLACSTCHLIFEDHIYNKLDAITDEENDMLDLAYGLTDRSRLGCQICLTKSMDNMTVRVPETVADARQSIDVGKTS | -0.0561 | -0.574 |
